Reference: the supplement of paper PMC12783771
± gives the standard deviation of the averaged measurements.

B1: library; a variant is named by its letters at X, in order (parent)
chain: MNIQIGELAKRTACPVVTIRFYEQEGLLPPPGRSRGNFRLYGEEHVERLQFIRHCRSLDMPLSXVRTLLSYRKRPDQDCGEVXMLLDEHXRQVESRIGALLELXHXLVELREACSGARPAQSCGILQGLSDCVCDTRGTTAHXSD

Assays:
[1] = variants of: B1; experiment: sfGFP reporter fluorescence (15 h) (µM FITC); higher = higher leak; details: library round: Round 3b; ligand: none
Protocol: (§1)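 Cell-free biosensing: 1 µL Echo-assembled CFE reactions with linear PbrR variant templates (5 nM) and pPbrR-sfGFP reporter, with 1 µM Pb, 30 µM Zn or no ligand; endpoint sfGFP fluorescence after 15 h at 30 °C calibrated as µM FITC. Round 3b rational combinatorial PbrR mutants; 3 biological replicates.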

[2] = variants of: B1; experiment: sfGFP reporter fluorescence (15 h) (µM FITC); higher = stronger transcriptional activation; details: library round: Round 3b
Protocol: as §1

Variant	sfGFP reporter fluorescence [1]	sfGFP reporter fluorescence ([2]; ligand: 1 µM Pb)	sfGFP reporter fluorescence ([2]; ligand: 30 µM Zn)
KFATET	0.0469 ± 0.0028	0.404 ± 0.017	0.0606 ± 0.0013
KFATHP	0.0523 ± 0.0059	0.476 ± 0.041	0.112 ± 0.011
DFATHR	0.0436 ± 0.0022	0.053 ± 0.0037	0.0482 ± 0.0037
KFATHR	0.0517 ± 0.0024	0.705 ± 0.055	0.171 ± 0.012
DFATHT	0.0408 ± 0.0051	0.0491 ± 0.0032	0.0448 ± 0.0049
KFATHT	0.0512 ± 0.0033	0.558 ± 0.011	0.137 ± 0.013
DFAVAP	0.0435 ± 0.0045	0.0535 ± 0.0046	0.0484 ± 0.0012
DFAVAR	0.0466 ± 0.0033	0.0575 ± 0.0018	0.0492 ± 0.0035
KFAVAR	0.0482 ± 0.0037	0.398 ± 0.028	0.0563 ± 0.00097
DFAVAT	0.0442 ± 0.0011	0.0558 ± 0.0015	0.0449 ± 0.0022
KFAVAT	0.0465 ± 0.0014	0.356 ± 0.02	0.057 ± 0.0017
DFAVEP	0.0418 ± 0.0019	0.0531 ± 0.0031	0.0466 ± 0.0044
KFAVEP	0.0452 ± 0.0037	0.533 ± 0.03	0.0557 ± 0.0048
DFAVER	0.0402 ± 0.0024	0.0506 ± 0.0017	0.0474 ± 0.0015
KFAVER	0.0512 ± 0.0022	0.51 ± 0.029	0.056 ± 0.0049
DFAVET	0.0447 ± 0.00067	0.051 ± 0.0039	0.0469 ± 0.00097
KFAVET	0.0489 ± 0.0017	0.41 ± 0.071	0.0549 ± 0.0017
KFAVHP	0.0477 ± 0.002	0.656 ± 0.07	0.198 ± 0.014
DFAVHR	0.0438 ± 0.0023	0.059 ± 0.0031	0.0519 ± 0.0031
KFAVHR	0.0469 ± 0.0029	0.631 ± 0.038	0.171 ± 0.017
DFAVHT	0.0401 ± 0.0051	0.0539 ± 0.001	0.0473 ± 0.0027
KFAVHT	0.0459 ± 0.0029	0.632 ± 0.071	0.179 ± 0.029
KFIKAT	0.0418 ± 0.0013	0.169 ± 0.015	0.0513 ± 0.0024

Variant	sfGFP reporter fluorescence [1]	sfGFP reporter fluorescence ([2]; ligand: 1 µM Pb)	sfGFP reporter fluorescence ([2]; ligand: 30 µM Zn)
KFIKER	0.0412 ± 0.0027	0.147 ± 0.0078	0.0496 ± 0.0038
KFIKET	0.0439 ± 0.002	0.135 ± 0.0014	0.0531 ± 0.0027
KFITAP	0.0485 ± 0.0052	0.302 ± 0.022	0.0642 ± 0.0032
DFITAR	0.0422 ± 0.0057	0.0635 ± 0.0015	0.0455 ± 0.0024
KFITAR	0.0479 ± 0.003	0.394 ± 0.028	0.0776 ± 0.0024
DFITAT	0.0436 ± 0.0017	0.0559 ± 0.004	0.0439 ± 0.00085
KFITAT	0.0473 ± 0.0032	0.335 ± 0.012	0.0678 ± 0.0076
KFITEP	0.0482 ± 0.0055	0.36 ± 0.014	0.0694 ± 0.0043
DFITER	0.0424 ± 0.0031	0.0522 ± 0.0026	0.0451 ± 0.0034
KFITER	0.0486 ± 0.00051	0.435 ± 0.016	0.0763 ± 0.005
DFITET	0.0393 ± 0.0042	0.0493 ± 0.0022	0.0433 ± 0.0032
KFITET	0.0451 ± 0.0028	0.3727 ± 0.0019	0.0737 ± 0.0037
KFITHR	0.0496 ± 0.0019	0.554 ± 0.021	0.25 ± 0.036
KFITHT	0.0512 ± 0.0076	0.492 ± 0.046	0.21 ± 0.024
DFIVAT	0.0456 ± 0.0052	0.0992 ± 0.004	0.0496 ± 0.0011
KFIVEP	0.0475 ± 0.004	0.567 ± 0.017	0.107 ± 0.013
DFIVER	0.0476 ± 0.0017	0.0836 ± 0.0022	0.0461 ± 0.001
KFIVER	0.0558 ± 0.0015	0.491 ± 0.0094	0.0916 ± 0.0098
DFIVET	0.0435 ± 0.0054	0.0785 ± 0.0019	0.0449 ± 0.0017
KFIVET	0.0511 ± 0.0019	0.453 ± 0.057	0.094 ± 0.006
KFIVHT	0.0536 ± 0.0065	0.7 ± 0.038	0.365 ± 0.038
KIAKAP	0.0576 ± 0.0074	0.674 ± 0.062	0.0578 ± 0.0037
